Here are results for two molecules from article PMC9365787, “Molecular basis of MHC I quality control in the peptide loading complex” (Nature Communications, 2022).

The labels stand for the following.
T1: ERp57 (human (endogenous in Raji), UniProt P30101 25-505, disulfide from Cys33 to Cys95 of tapasin)
T1 construct: also called disulfide isomerase ERp57; source: endogenous, Raji (Burkitt's lymphoma) cells, solubilised in GDN; purified within the PLC by ICP47^SBP and reconstituted in MSP2N2 nanodiscs
T1 sequence (looked up): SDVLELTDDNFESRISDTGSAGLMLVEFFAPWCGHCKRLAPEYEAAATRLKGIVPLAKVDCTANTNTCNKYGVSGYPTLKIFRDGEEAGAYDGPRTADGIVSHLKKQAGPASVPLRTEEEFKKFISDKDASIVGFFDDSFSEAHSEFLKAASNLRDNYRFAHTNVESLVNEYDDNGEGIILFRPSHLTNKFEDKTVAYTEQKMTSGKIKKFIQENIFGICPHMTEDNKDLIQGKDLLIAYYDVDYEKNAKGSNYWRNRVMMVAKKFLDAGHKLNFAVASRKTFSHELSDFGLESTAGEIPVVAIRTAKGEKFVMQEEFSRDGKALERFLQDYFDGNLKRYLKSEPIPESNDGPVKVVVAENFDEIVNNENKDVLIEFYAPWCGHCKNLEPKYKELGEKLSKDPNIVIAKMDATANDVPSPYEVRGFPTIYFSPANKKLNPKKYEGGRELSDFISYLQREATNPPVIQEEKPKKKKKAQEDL

B1: calreticulin (natural protein, human (endogenous in Raji), UniProt P27797 18-417, looked up)
chain: EPAVYFKEQFLDGDGWTSRWIESKHKSDFGKFVLSSGKFYGDEEKDKGLQTSQDARFYALSASFEPFSNKGQTLVVQFTVKHEQNIDCGGGYVKLFPNSLDQTDMHGDSEYNIMFGPDICGPGTKKVHVIFNYKGKNVLINKDIRCKDDEFTHLYTLIVRPDNTYEVKIDNSQVESGSLEDDWDFLPPKKIKDPDASKPEDWDERAKIDDPTDSKPEDWDKPEHIPDPDAKKPEDWDEEMDGEWEPPVIQNPEYKGEWKPRQIDNPDYKGTWIHPEIDNPEYSPDPSIYAYDNFGVLGLDLWQVKSGTIFDNFLITNDEAYAEEFGNETWGVTKAAEKQMKDKQDEEQRLKEEEEDKKRKEEEEAEDKEDDEDKDEDEEDEEDKEEDEEEDVPGQAKDEL
notes: source: endogenous, Raji (Burkitt's lymphoma) cells, solubilised in GDN; purified within the PLC by ICP47^SBP and reconstituted in MSP2N2 nanodiscs
B2: tapasin (natural protein, human (endogenous in Raji), UniProt O15533 21-448, looked up)
chain: GPAVIECWFVEDASGKGLAKRPGALLLRQGPGEPPPRPDLDPELYLSVHDPAGALQAAFRRYPRGAPAPHCEMSRFVPLPASAKWASGLTPAQNCPRALDGAWLMVSISSPVLSLSSLLRPQPEPQQEPVLITMATVVLTVLTHTPAPRVRLGQDALLDLSFAYMPPTSEAASSLAPGPPPFGLEWRRQHLGKGHLLLAATPGLNGQMPAAQEGAVAFAAWDDDEPWGPWTGNGTFWLPTVQPFQEGTYLATIHLPYLQGQVTLELAVYKPPKVSLMPATLARAAPGEAPPELLCLVSHFYPSGGLEVEWELRGGPGGRSQKAEGQRWLSALRHHSDGSVSLSGHLQPPPVTTEQHGARYACRIHHPSLPASGRSAEVTLEVAGLSGPSLEDSVGLFLSAFLLLGLFKALGWAAVYLSTCKDSKKKAE
modifications: N-glycan at Asn233 (Man9-0GlcNAc2-1, heterogeneous); disulfide from Cys95 to Cys33 of ERp57
notes: as for B1

The target in the assay “tapasin” is B2. Kind of assay: cryo-EM structure; PLC::MSP2N2 (1.8 mg/ml, 2.5 µM) in lipid nanodiscs without chemical fixation; focused refinement on the fully assembled editing module, 3.7 Å. To be noted: both partners purified.
The next assay concerns the target T1, ERp57. The assay is described as above. To be noted: both partners purified.

B1: in the assay with tapasin, the binding result is given as “binds”.

For the molecule B2, the binding result with ERp57 is recorded as “binds”.
